# Laboratory results: US5871732
# Columns and labels:
# [1] = molecular target: recombinant soluble CD4 (human CD4 AA1-AA375) (human) (UniProt P01730); assay: RIA, 125I-rsCD4 preincubated with the soluble antibody; competitor: immobilised 5A8
# [2] = molecular target: recombinant soluble CD4 (human CD4 AA1-AA375) (human) (UniProt P01730); assay: RIA, immobilised antibody; 125I-rsCD4 preincubated with the soluble competitor OKT4
# [3] = molecular target: recombinant soluble CD4 (human CD4 AA1-AA375) (human) (UniProt P01730); assay: RIA, immobilised antibody; 125I-rsCD4 preincubated with the competitor HIV r-gp120 (2.5 µg/ml)
# [4] = molecular target: recombinant soluble CD4 (human CD4 AA1-AA375) (human) (UniProt P01730); assay: RIA, immobilised antibody; 125I-rsCD4 preincubated with the soluble competitor Leu3A
# [5] = molecular target: CD4-V1 polypeptide (AA1-AA113 and/or AA1-AA111 of human CD4) (human) (UniProt P01730); assay: RIA, antibody captured on goat anti-mouse IgG; CD4-V1 (5 µg/ml) competing with 125I-rsCD4
# [6] = molecular target: recombinant soluble CD4 (human CD4 AA1-AA375) (human) (UniProt P01730); assay: RIA, immobilised antibody; 125I-rsCD4 preincubated with the soluble competitor OKT4A
# [7] = molecular target: human CD4 displayed on the surface of CD4+ cells (human) (UniProt P01730)
# [8] = molecular target: CD4-V1V2 polypeptide (AA1-AA180 of human CD4) (human) (UniProt P01730); assay: RIA, antibody captured on goat anti-mouse IgG; CD4-V1V2 (5 µg/ml) competing with 125I-rsCD4
# [9] = molecular target: mouse/human substitution mutant of rsCD4 at AA220-AA226 (V3) (human) (UniProt P01730); assay: mutant rsCD4 (1 µg/ml) as competitor of OKT4 binding to CD4+ cells
# [10] = molecular target: mouse/human substitution mutant of rsCD4 at AA165 (V2) (human) (UniProt P01730); assay: as above
# [11] = molecular target: mouse/human substitution mutant of rsCD4 at AA121-AA124 (V2) (human) (UniProt P01730); assay: as above
# [12] = molecular target: mouse/human substitution mutant of rsCD4 at AA60 (V1) (human) (UniProt P01730); assay: as above
# [13] = molecular target: mouse/human substitution mutant of rsCD4 at AA127-AA134 (V2) (human) (UniProt P01730); assay: as above
# [14] = molecular target: mouse/human substitution mutant of rsCD4 at AA240-AA252 (V3) (human) (UniProt P01730); assay: as above
Substance,% Inhibition rsCD4 Binding [1],% Inhibition rsCD4 Binding By OKT4 [2],HIV r-gp120 % Inhibition rsCD4 Binding [3],% Inhibition rsCD4 Binding By Leu 3A [4],CD4-V1 % Inhibition of rsCD4 Binding [5],% Inhibition rsCD4 Binding By OKT4A [6],concentration inhibiting syncytia formation 50% [7],CD4-V1V2 % Inhibition of rsCD4 Binding [8],% blocking of OKT4 binding to CD4+ cells [9],% blocking of OKT4 binding to CD4+ cells [10],% blocking of OKT4 binding to CD4+ cells [11],% blocking of OKT4 binding to CD4+ cells [12],% blocking of OKT4 binding to CD4+ cells [13],% blocking of OKT4 binding to CD4+ cells [14]
"Leu3A, CD4 V1-specific monoclonal antibody (Becton Dickinson)",0%,-10.3%,85.1%,85.8%,88.2%,73.9%,0.02 µg/mL,94%,–,–,–,–,–,–
"OKT4, CD4 V3V4-specific anti-CD4 mouse monoclonal antibody (Ortho Diagnostic Systems)",4%,91.3%,-8.2%,8.4%,-5.5%,3.6%,–,14.4%,60%,60%,60%,60%,60%,60%
"OKT4A, CD4 V1-specific anti-CD4 mouse monoclonal antibody (Ortho Diagnostic Systems)",–,-26.8%,66.1%,62%,87.3%,68.5%,–,95.5%,–,–,–,–,–,–
